Experimental data from patent US20200087400A1 (EUREKA THERAPEUTICS, published 2020).
Changes are numbered by the printed parent chain.

Assays:
[1] = target: T1, control peptide A2E-1/HLA-A*02:01 complex on T2 cells (member of the P19 mixture) (human); experiment: flow cytometry, phage on T2 cells
T1 construct: Loaded on T2 cells as part of the mixture of 19 control peptides
In short: (§1)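 Phage ELISA: individual scFv phage clones from panning pools enriched against PSA146/HLA-A*02:01 were incubated in coated streptavidin plates; binding was detected with HRP anti-M13 and HRP substrate, read at 450 nm. For flow cytometry, T2 cells loaded with peptide and β2M were stained with purified phage clones.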

[2] = target: T2, control peptide A2E-2/HLA-A*02:01 complex on T2 cells (member of the P19 mixture) (human); experiment: flow cytometry, phage on T2 cells
T2 construct: Loaded on T2 cells as part of the mixture of 19 control peptides
In short: as §1

[3] = target: T3, control peptide A2E-3/HLA-A*02:01 complex on T2 cells (member of the P19 mixture) (human); experiment: flow cytometry, phage on T2 cells
T3 construct: Loaded on T2 cells as part of the mixture of 19 control peptides
In short: as §1

[4] = target: T4, control peptide A2E-4/HLA-A*02:01 complex on T2 cells (member of the P19 mixture) (human); experiment: flow cytometry, phage on T2 cells
T4 construct: Loaded on T2 cells as part of the mixture of 19 control peptides
In short: as §1

[5] = target: T5, control peptide A2E-5/HLA-A*02:01 complex on T2 cells (member of the P19 mixture) (human); experiment: flow cytometry, phage on T2 cells
T5 construct: Loaded on T2 cells as part of the mixture of 19 control peptides
In short: as §1

[6] = target: T6, control peptide A2E-6/HLA-A*02:01 complex on T2 cells (member of the P19 mixture) (human); experiment: flow cytometry, phage on T2 cells
T6 construct: Loaded on T2 cells as part of the mixture of 19 control peptides
In short: as §1

[7] = target: T7, control peptide A2E-7/HLA-A*02:01 complex on T2 cells (member of the P19 mixture) (human); experiment: flow cytometry, phage on T2 cells
T7 construct: Loaded on T2 cells as part of the mixture of 19 control peptides
In short: as §1

[8] = target: T8, control peptide A2E-8/HLA-A*02:01 complex on T2 cells (member of the P19 mixture) (human); experiment: flow cytometry, phage on T2 cells
T8 construct: Loaded on T2 cells as part of the mixture of 19 control peptides
In short: as §1

[9] = target: T9, control peptide A2E-9/HLA-A*02:01 complex on T2 cells (member of the P19 mixture) (human); experiment: flow cytometry, phage on T2 cells
T9 construct: Loaded on T2 cells as part of the mixture of 19 control peptides
In short: as §1

[10] = target: T10, control peptide A2E-10/HLA-A*02:01 complex on T2 cells (member of the P19 mixture) (human); experiment: flow cytometry, phage on T2 cells
T10 construct: Loaded on T2 cells as part of the mixture of 19 control peptides
In short: as §1

[11] = target: T11, control peptide A2E-11/HLA-A*02:01 complex on T2 cells (member of the P19 mixture) (human); experiment: flow cytometry, phage on T2 cells
T11 construct: Loaded on T2 cells as part of the mixture of 19 control peptides
In short: as §1

[12] = target: T12, control peptide A2E-13/HLA-A*02:01 complex on T2 cells (member of the P19 mixture) (human); experiment: flow cytometry, phage on T2 cells
T12 construct: Loaded on T2 cells as part of the mixture of 19 control peptides
In short: as §1

[13] = target: T13, control peptide A2E-14/HLA-A*02:01 complex on T2 cells (member of the P19 mixture) (human); experiment: flow cytometry, phage on T2 cells
T13 construct: Loaded on T2 cells as part of the mixture of 19 control peptides
In short: as §1

[14] = target: T14, control peptide A2E-15/HLA-A*02:01 complex on T2 cells (member of the P19 mixture) (human); experiment: flow cytometry, phage on T2 cells
T14 construct: Loaded on T2 cells as part of the mixture of 19 control peptides
In short: as §1

[15] = target: T15, control peptide A2E-16/HLA-A*02:01 complex on T2 cells (member of the P19 mixture) (human); experiment: flow cytometry, phage on T2 cells
T15 construct: Loaded on T2 cells as part of the mixture of 19 control peptides
In short: as §1

[16] = target: T16, control peptide A2E-17/HLA-A*02:01 complex on T2 cells (member of the P19 mixture) (human); experiment: flow cytometry, phage on T2 cells
T16 construct: Loaded on T2 cells as part of the mixture of 19 control peptides
In short: as §1

[17] = target: T17, control peptide A2E-21/HLA-A*02:01 complex on T2 cells (member of the P19 mixture) (human); experiment: flow cytometry, phage on T2 cells
T17 construct: Loaded on T2 cells as part of the mixture of 19 control peptides
In short: as §1

[18] = target: T18, control peptide A2E-23/HLA-A*02:01 complex on T2 cells (member of the P19 mixture) (human); experiment: flow cytometry, phage on T2 cells
T18 construct: Loaded on T2 cells as part of the mixture of 19 control peptides
In short: as §1

Bio-P19 member A2E-23 = target: T19, Bio-P19 member A2E-23 (chain 2 carries a C-terminal BirA substrate peptide (BSP), enzymatically biotinylated; the BSP letters are not given in the patent and are left out); experiment: phage ELISA, streptavidin plate, anti-M13-HRP
T19 construct: also called biotinylated control peptide A2E-23/HLA-A*02:01 monomer
In short: (§2)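 ELISA: clones incubated on streptavidin-captured biotinylated peptide/HLA-A*02:01 complex, detected by HRP-conjugated anti-M13 with absorbance at 450 nm. FACS: T2 cells, unloaded or peptide-loaded with β2M, stained sequentially on ice (30–60 min per step) with scFv phage, anti-M13 and R-PE anti-mouse IgG.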

Bio-P19 member A2E-2 = target: T20, Bio-P19 member A2E-2 (chain 2 carries a C-terminal BirA substrate peptide (BSP), enzymatically biotinylated; the BSP letters are not given in the patent and are left out); experiment: phage ELISA, streptavidin plate, anti-M13-HRP
T20 construct: also called biotinylated control peptide A2E-2/HLA-A*02:01 monomer
In short: as §2

Bio-P19 member A2E-3 = target: T21, Bio-P19 member A2E-3 (chain 2 carries a C-terminal BirA substrate peptide (BSP), enzymatically biotinylated; the BSP letters are not given in the patent and are left out); experiment: phage ELISA, streptavidin plate, anti-M13-HRP
T21 construct: also called biotinylated control peptide A2E-3/HLA-A*02:01 monomer
In short: as §2

[19] = target: T22, PSA 146-154 peptide/HLA-A*02:01 complex on the cell surface (human); experiment: flow cytometry, phage on T2 cells, anti-M13 + R-PE anti-mouse IgG
T22 construct: also called PSA146/HLA-A*02:01; PSA146-loaded T2 cells
Procedure: (§3) Individual phage clones from enriched phage display panning pools against PSA146/HLA-A*02:01 complex were incubated in the coated plates. Binding of the phage clones was detected by HRP-conjugated anti-M13 antibodies and developed using HRP substrate. The absorbance was read at 450 nm. […] Then, unique antibody clones were identified through DNA sequencing of ELISA-positive clones. […] T2 cells loaded with different peptides and β2M were first stained with purified scFv phage clones, followed by staining with a mouse anti-M13 mAb, and finally R-PE conjugated horse anti-mouse IgG from Vector Labs. Each step of the staining was performed for between 30-60 minutes on ice and the cells were washed twice between stainings. All 16 clones recognized PSA146-loaded T2 cells specifically. FIG. 3 provides examples of PSA146/HLA-A*02:01 specific phage clone binding to peptide-loaded T2 cells through FACS.

[20] = target: T23, HLA-A*02:01 on T2 cells with no peptide loaded (human); experiment: as above
T23 construct: TAP-deficient T2 cells, no peptide loaded from outside; also called T2 cells without peptide loading
Procedure: as §3

B1: PSA146/HLA-A*02:01-specific scFv phage clone #6 (scFv, V domains shown)
VH: EVQLVQSGAEVKKPGASVKVSCKASGYTFTGYYIHWVRQAPGQGLEWMGGFDPEDGETIYAQKFQDRVTMTADTSTDTAYMELSSLRSEDTAVYYCARYGFDYWGQGTLVTVSS
VL: QAVVTQEPSLTVSPGGTVTLTCASSTGAVTSGYYPNWFQLKPGQAPRALIYTTGKKHSWAPARFSGSLLGGKAALTLSGVQPEDEAEYYCLLYSGGVWVFGGGTKLTVLG
- binding result [1]: no binding
- binding result [2]: no binding
- binding result [3]: no binding
- binding result [4]: no binding
- binding result [5]: no binding
- binding result [6]: no binding
- binding result [7]: no binding
- binding result [8]: no binding
- binding result [9]: no binding
- binding result [10]: no binding
- binding result [11]: no binding
- binding result [12]: no binding
- binding result [13]: no binding
- binding result [14]: no binding
- binding result [15]: no binding
- binding result [16]: no binding
- binding result [17]: no binding
- binding result [18]: no binding
- binding result (Bio-P19 member A2E-23): no binding
- binding result (Bio-P19 member A2E-2): no binding
- binding result (Bio-P19 member A2E-3): no binding
- binding result [19]: binds
- binding result [20]: no binding

B2: PSA146/HLA-A*02:01-specific scFv phage clone #17 (scFv, V domains shown)
VH: QMQLVQSGAEVKKPGESLKISCKGSGYSFTSYWIGWVRQMPGKGLEWMGIIYPGDSDTRYSPSFQGQVTISADKSISTAYLQWSSLKASDTAMYYCARLVVPDAFDIWGQGTMVTVSS
VL: QSVVTQPPSVSAAPGQKVTISCSGSSSNIGNNYVSWYQQLPGTAPKLLIYDNYKRPSGIPDRFSGSKSGTSATLGITGLQTGDEADYYCGTWDSSLSAGVFGGGTKLTVLG
- binding result [1]: no binding
- binding result [2]: no binding
- binding result [3]: no binding
- binding result [4]: no binding
- binding result [5]: no binding
- binding result [6]: no binding
- binding result [7]: no binding
- binding result [8]: no binding
- binding result [9]: no binding
- binding result [10]: no binding
- binding result [11]: no binding
- binding result [12]: no binding
- binding result [13]: no binding
- binding result [14]: no binding
- binding result [15]: no binding
- binding result [16]: no binding
- binding result [17]: no binding
- binding result [18]: no binding
- binding result [19]: binds
- binding result [20]: no binding

B3: PSA146/HLA-A*02:01-specific scFv phage clone #2 (scFv, V domains shown)
VH: EVQLVQSGAEVKRPGSSVKVSCKASGGTFSSYAINWVRRAPGQGLEWMGKIIPIPGITNYAQKFQDRVTFTADTSTNIAYMELSSLRSEDTAMYYCARSYKWGSSLVDAWGQGTLVTVSS
VL: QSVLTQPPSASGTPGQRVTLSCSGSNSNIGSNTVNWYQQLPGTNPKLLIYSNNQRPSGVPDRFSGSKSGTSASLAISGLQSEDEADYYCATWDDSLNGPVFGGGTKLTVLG
- binding result [1]: no binding
- binding result [2]: no binding
- binding result [3]: no binding
- binding result [4]: no binding
- binding result [5]: no binding
- binding result [6]: no binding
- binding result [7]: no binding
- binding result [8]: no binding
- binding result [9]: no binding
- binding result [10]: no binding
- binding result [11]: no binding
- binding result [12]: no binding
- binding result [13]: no binding
- binding result [14]: no binding
- binding result [15]: no binding
- binding result [16]: no binding
- binding result [17]: no binding
- binding result [18]: no binding
- binding result (Bio-P19 member A2E-23): no binding
- binding result (Bio-P19 member A2E-2): no binding
- binding result (Bio-P19 member A2E-3): no binding
- binding result [19]: binds
- binding result [20]: no binding

B4: PSA146/HLA-A*02:01-specific scFv phage clone #3 (scFv, V domains shown)
VH: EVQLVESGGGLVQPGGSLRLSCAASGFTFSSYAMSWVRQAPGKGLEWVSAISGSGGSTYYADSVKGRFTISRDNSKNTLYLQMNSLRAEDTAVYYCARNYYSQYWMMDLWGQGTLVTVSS
VL: QSVLTQPPSVSGAPGQRVTISCTGSSSNFGAGYDVHWYQQLPGAAPKLLIYGDTNRPSGVPDRFSGSKSGTSASLAITGLQAEDEADYYCQSYDTSLSGSVFGGGTKLTVLG
- binding result [1]: no binding
- binding result [2]: no binding
- binding result [3]: no binding
- binding result [4]: no binding
- binding result [5]: no binding
- binding result [6]: no binding
- binding result [7]: no binding
- binding result [8]: no binding
- binding result [9]: no binding
- binding result [10]: no binding
- binding result [11]: no binding
- binding result [12]: no binding
- binding result [13]: no binding
- binding result [14]: no binding
- binding result [15]: no binding
- binding result [16]: no binding
- binding result [17]: no binding
- binding result [18]: no binding
- binding result (Bio-P19 member A2E-23): no binding
- binding result (Bio-P19 member A2E-2): no binding
- binding result (Bio-P19 member A2E-3): no binding
- binding result [19]: binds
- binding result [20]: no binding

B5: PSA146/HLA-A*02:01-specific scFv phage clone #5 (scFv, V domains shown)
VH: QVQLVQSGAEVKKPGDSVKVSCKPSGYNFLNYGINWVRQAPGQGLEWMGWISTYTGNTNYAQKLQGRVTFTTDTSTSTAYMEMRSLRSDDTAVYYCARSSEYYTWDHWGQGTLVTVSS
VL: B4 VL with F29I, A44T, D53N, T54S, T95S, S100W
- binding result [1]: no binding
- binding result [2]: no binding
- binding result [3]: no binding
- binding result [4]: no binding
- binding result [5]: no binding
- binding result [6]: no binding
- binding result [7]: no binding
- binding result [8]: no binding
- binding result [9]: no binding
- binding result [10]: no binding
- binding result [11]: no binding
- binding result [12]: no binding
- binding result [13]: no binding
- binding result [14]: no binding
- binding result [15]: no binding
- binding result [16]: no binding
- binding result [17]: no binding
- binding result [18]: no binding
- binding result (Bio-P19 member A2E-23): no binding
- binding result (Bio-P19 member A2E-2): no binding
- binding result (Bio-P19 member A2E-3): no binding
- binding result [19]: binds
- binding result [20]: no binding
